# Numbering of substitutions follows the chain as printed. In names and notes the source's numbering stands.
# B1: C3bBb.P045.072 (Fab, V domains shown)
# VH: KLQLVESGGGLVKPGGSLRLSCAASGRRFGVQDMSWVRQAPGKGLEWVGSISPKGDHKYLNTKFIGRFTISRDNSKNTLYLQMNSLRAEDTAVYYCARDWGYFDQWGQGTLVTVSS
# VL: AIQMTQSPSSLSASVGDRVTITCHGSYWLSSEVAWYQQKPGKAPKLLIYDGNGIIGNVPSRFSGSGSHEDYTLTISSLQPEDFATYYCQQYRYHPYTFGHGTKVEIK
# notes: Tested as soluble Fab in E. coli supernatant with a T7 tag at the C-terminus of the Fab CH1 domain; detected with anti human kappa
# B2: C3bBb.P048.061 (Fab, V domains shown)
# VH: GQLVESGGGLVKPGGSLRLSCKASGFYWGPGAMSWVRQAPGKGLEWVGSISPKGGSTDINPKIGGRFTISRDNNQDTLYLQMNSLRAEDTAVYYCARDIGFFDTWGQGTLVTVSS
# VL: AIQMTQSPSSLSASVGDRVTITCQGSWLISNYLAWYQQKPGKAPKLLIFDAKYRAPEVPSRFSGSGSGTDFTLTISSLQPEDFATYYCQQYGGRLLTFGQGTKVEIK
# notes: as for B1
# B3: C3bBb.P048.127 (Fab, V domains shown)
# VH: B2 VH with D58E, I59Y, P61T, I63V, G64Y
# VL: HQMTQSPSSLSASVGDRVTITCDGEWDISNYLAWYQQKPGKAPKLLIFDAKYRAPEVPSRFSGSGSGRDFTLTISSLQPEDFATYYCQQYNRMYFTFGQGTKVEIK
# notes: as for B1
# B4: C3bBb.P048.241 (Fab, V domains shown)
# VH: B2 VH with T57A, D58W, I59Y, P61N, K62N, I63F, G64T
# VL: INQMTQSPSSLSASVGDRVTITCQAKWVISNYLAWYQQKPGKAPKLLIFDAKYRAPEVPSRFSGSGSDGTFTLTISSLQPEDFATYYCQQYDWWPYTFGQGTKVEIK
# notes: as for B1
# B5: C3bBb.P055.015 (Fab, V domains shown)
# VH: B2 VH with T57A, D58E, I59Y, N60A, P61S, I63V, G64Y
# VL: DYQMTQSPSSLSASVGDRVTITCEAHSQISNYLAWYQQKPGKAPKLLIFDAKYRAPEVPSRFSGSGSGPDFTLTISSLQPEDFATYYCQQYNDFWLTFGQGTKVEIK
# notes: as for B1
# B6: recombinant human FB with D279G, K350N and M458I with His Tag and Precission site (enzyme)
# chain: KIVLDPSGSMNIYLVLDGSGSIGASNFTGAKKCLVNLIEKVASYGVKPRYGLVTYATYPKIWVKVSEADSSNADWVTKQLNEINYEDHKLNSGTNTKKALQAVYSMMSWPDDVPPEGWNRTRHVIILMTDGLHNMGGDPITVIDEIRDLLYIGKDRKNPREDYLDVYVFGVGPLVNQVNINALASKKDNEQHVFKVKDIENLEDVFYQMIDESQSLSLCGMVWEHRKGTDYHKQPWQAKISVIRPSKGHESCMGAVVSEYFVLTAAHCFTVDDKEHSIKVSVGGEKRDLEIEVVLFHPNYNINGKKEAGIPEFYDYDVALIKLKNKLKYGQTIRPICLPCTEGTTRALRLPPTTTCQQQKEELLPAQDIKALFVSEEEKKLTRKEVYIKNGDKKGSCERDAQYAPGYDKVKDISEVVTPRFLCTGGVSPYADPNTCRGDSGGPLIVHKRSRFIQVGVISWGVVDVCKNQKRQKQVPAHARDFHINLFQVLPWLKEKLQDEDLGFL
# notes: Cleaved by factor D in the assay; the Bb subunit stays on C3b; also called FB (D279G, K350N and M458I); triple mutated Bb
# Legend:
# [1] = molecular target: mixture of 5 nM human C3, 5 nM human C3a and 2.5 nM human C3b coated on the plate; assay: counterscreening ELISA, plate coated with a mixture of human C3, C3a and C3b, Fab supernatant
# [2] = molecular target: mixture of 10 nM human Factor B, 5 nM human Ba and 10 nM human Bb coated on the plate; assay: counterscreening ELISA, plate coated with a mixture of human Factor B, Ba and Bb, Fab supernatant
# [3] = molecular target: T1, stabilized human C3bBb complex comprising the Bb subunit of the FB protein of SEQ ID NO: 3 (triple mutant), … (human, UniProt P01024 23-667; P00751 260-764; P01024 749-1663, limits assumed, biotinylated with EZ-Link HPDP-Biotin (Cys)); assay: ELISA, biotinylated C3bBb on streptavidin plate, Fab supernatant, anti kappa/anti T7 HRP
# T1 construct: also called C3bBb (D279G/350N/M458I); C3bBb triple mutant-HPDP
# T1 sequence (P01024 23-667 limits assumed, stated change not applied, chain 1 of 3, one chain of several): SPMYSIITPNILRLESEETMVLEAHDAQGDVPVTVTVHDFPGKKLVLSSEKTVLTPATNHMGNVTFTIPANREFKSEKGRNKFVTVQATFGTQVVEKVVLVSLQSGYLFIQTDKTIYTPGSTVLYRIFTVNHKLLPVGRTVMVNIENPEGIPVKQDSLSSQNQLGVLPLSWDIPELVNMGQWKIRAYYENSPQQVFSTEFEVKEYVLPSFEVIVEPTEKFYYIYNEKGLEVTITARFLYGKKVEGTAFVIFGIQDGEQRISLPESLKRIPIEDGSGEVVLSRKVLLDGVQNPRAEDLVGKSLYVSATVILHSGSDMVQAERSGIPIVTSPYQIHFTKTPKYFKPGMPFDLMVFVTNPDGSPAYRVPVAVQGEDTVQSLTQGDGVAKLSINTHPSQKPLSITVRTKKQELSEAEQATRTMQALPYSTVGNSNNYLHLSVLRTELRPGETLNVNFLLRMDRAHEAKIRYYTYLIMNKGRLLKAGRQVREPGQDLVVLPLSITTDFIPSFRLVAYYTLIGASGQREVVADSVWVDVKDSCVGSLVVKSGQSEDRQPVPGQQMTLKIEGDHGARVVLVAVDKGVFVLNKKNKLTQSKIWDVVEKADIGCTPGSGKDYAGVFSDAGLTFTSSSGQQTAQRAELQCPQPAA
# T1 sequence (P01024 749-1663 limits assumed, stated change not applied, chain 3 of 3, one chain of several): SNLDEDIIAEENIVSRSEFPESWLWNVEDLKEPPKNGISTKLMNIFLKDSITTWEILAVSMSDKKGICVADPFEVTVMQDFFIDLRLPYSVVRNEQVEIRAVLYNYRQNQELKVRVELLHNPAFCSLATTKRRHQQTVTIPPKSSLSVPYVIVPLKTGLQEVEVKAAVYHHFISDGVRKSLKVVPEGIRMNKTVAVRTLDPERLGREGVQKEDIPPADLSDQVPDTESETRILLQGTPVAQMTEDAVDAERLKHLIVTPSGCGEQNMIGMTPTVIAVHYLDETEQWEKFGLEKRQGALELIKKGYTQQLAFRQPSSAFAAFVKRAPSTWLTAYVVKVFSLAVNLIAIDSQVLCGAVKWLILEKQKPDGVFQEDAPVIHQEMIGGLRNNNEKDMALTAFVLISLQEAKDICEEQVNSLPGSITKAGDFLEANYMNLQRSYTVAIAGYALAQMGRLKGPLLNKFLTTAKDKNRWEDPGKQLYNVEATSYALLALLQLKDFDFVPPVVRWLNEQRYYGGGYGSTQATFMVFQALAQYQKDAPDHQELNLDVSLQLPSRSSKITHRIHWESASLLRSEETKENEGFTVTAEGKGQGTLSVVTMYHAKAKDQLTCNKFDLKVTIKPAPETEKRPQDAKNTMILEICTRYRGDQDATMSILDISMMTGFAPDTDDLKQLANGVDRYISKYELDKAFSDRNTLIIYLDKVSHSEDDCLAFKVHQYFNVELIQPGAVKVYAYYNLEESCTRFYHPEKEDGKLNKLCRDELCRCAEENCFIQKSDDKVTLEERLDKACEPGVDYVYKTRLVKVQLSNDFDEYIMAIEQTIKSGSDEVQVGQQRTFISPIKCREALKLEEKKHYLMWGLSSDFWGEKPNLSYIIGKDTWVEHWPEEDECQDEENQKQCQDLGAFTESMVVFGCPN
# Procedure: (§1) Method: 20 μl of a mixture of 500 ng/ml stabilized human C3bBb-Cys-HPDP-Biotin (inhouse preparation), 1:3000 mouse anti human kappa HRP (Southern Biotech 9230-05) and 1:2000 Mouse IgG anti T7 Tag HRP (Novagen 69048-3) was added to a Microcoat Streptavidine coated 384 well Microplate (Microcoat 11974998001). 25 μl sample was added to the plate and incubated at room temperature for 1 hour. After incubation plates were washed with 90 μl/well washing buffer using a Biotek EL406 Washer and 30 μl TMB (3,3′,5,5′-3,3,5,5-Tetramethylbenzidine, Roche 11835033001) was added. After a 5 Minute incubation at room temperature the optical density (OD) was measured at 370 nm using an En Vision Multimode Plate Reader (Perkin Elmer).
# [4] = molecular target: T2, stabilized human C3bBb complex comprising the Bb subunit of the FB protein of SEQ ID NO: 2 (single mutant), … (human, UniProt P01024 23-667; P00751 260-764; P01024 749-1663, limits assumed, biotinylated with EZ-Link HPDP-Biotin (Cys)); assay: as above
# T2 construct: also called C3bBb (D279G)
# T2 sequence (P01024 23-667 limits assumed, stated change not applied, chain 1 of 3): as the sequence (P01024 23-667 limits assumed, stated change not applied, chain 1 of 3, one chain of several) above
# T2 sequence (P00751 other isoform, or with tags, fused parts or gaps mutant limits assumed, chain 2 of 3): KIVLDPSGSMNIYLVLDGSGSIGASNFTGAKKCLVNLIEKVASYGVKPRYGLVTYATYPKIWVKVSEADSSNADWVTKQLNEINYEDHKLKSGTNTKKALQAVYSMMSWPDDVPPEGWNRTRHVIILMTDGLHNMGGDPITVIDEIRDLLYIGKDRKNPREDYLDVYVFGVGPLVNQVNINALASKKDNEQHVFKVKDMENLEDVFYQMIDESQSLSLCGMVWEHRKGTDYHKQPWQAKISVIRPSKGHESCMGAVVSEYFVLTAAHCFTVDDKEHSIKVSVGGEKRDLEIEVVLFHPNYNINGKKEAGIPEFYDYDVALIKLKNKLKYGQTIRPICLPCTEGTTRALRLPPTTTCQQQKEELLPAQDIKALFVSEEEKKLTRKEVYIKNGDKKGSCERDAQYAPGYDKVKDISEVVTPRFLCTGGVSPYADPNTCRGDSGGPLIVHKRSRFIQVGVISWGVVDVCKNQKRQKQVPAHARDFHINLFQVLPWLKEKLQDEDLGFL
# T2 sequence (P01024 749-1663 limits assumed, stated change not applied, chain 3 of 3): as the sequence (P01024 749-1663 limits assumed, stated change not applied, chain 3 of 3, one chain of several) above
# Procedure: as §1
# [5] = molecular target: T3, plasma purified C3b (Complement Technology), biotinylated at cysteine 1010 with Maleimide-PEG3-biotin (human, UniProt P01024 23-667; P01024 749-1663, limits assumed, cysteine 1010 biotinylated (Maleimide-PEG3-biotin)); assay: BLI, dissociation of C3bBb, Ni2+ buffer, against wild type C3bBb formed in presence of magnesium ions
# T3 construct: Loaded on streptavidin BLI sensors; also called Complement C3 beta chain (C3b); C3 fragment
# T3 sequence (P01024 23-667 limits assumed, chain 1 of 2): as the sequence (P01024 23-667 limits assumed, stated change not applied, chain 1 of 3, one chain of several) above
# T3 sequence (P01024 749-1663 limits assumed, chain 2 of 2): as the sequence (P01024 749-1663 limits assumed, stated change not applied, chain 3 of 3, one chain of several) above
# [6] = molecular target: T3, plasma purified C3b (Complement …); assay: BLI, biotinylated C3b on streptavidin sensor, FB with factor D, Mg2+ buffer, dissociation of C3bBb, double exponential fit
# Procedure: To analyze stability of the C3bBb complexes having the different Bb subunits, C3b cysteine 1010 was biotinylated by incubating plasma purified C3b (Complement Technology) overnight at 4° C. in presence of 5 molar excess Maleimide-PEG3-biotin (Thermo Fisher Scientific) followed by purification on a Zeba spin column 40K (Thermo Fisher Scientific). This material was used to load streptavidin functionalized BLI sensors (SA sensors; Fortebio) in an Octet RED 384 device (Fortebio) at high density (5 nm BLI signal). C3bBb was assembled by exposing the C3b loaded sensors to different recombinant factor B variants (i.e. wild type SEQ ID NO: 1; D279G variant of SEQ ID NO: 2; D279G K350N M458I triple variant of SEQ ID NO: 3) in presence of 54 nM plasma purified factor D (Complement Technology) in HBS-T (Mg) buffer (150 mM NaCl, 10 mM HEPES, 1 mM MgCl2, 0.005% Tween20. pH 7.4) at 22° C. […]
# After subtraction of the signal recorded from parallel reference sensors omitting the C3b loading step and subtraction of a control sensor omitting factor B and factor D, data of the dissociation phase was fitted to the double exponential ((A*exp(((−1)*B)*x)))+(C*exp(((−1)*D)*x)) using XLfit (IDBS software), allowing for heterogeneity in the assembled convertase population. […]
# [7] = molecular target: T3, plasma purified C3b (Complement …); assay: BLI, biotinylated C3b on streptavidin sensor, FB with factor D, Ni2+ buffer, dissociation of C3bBb, single exponential fit
# Text: Correction of the BLI trace was identical to the experiment in presence of magnesium. Different from the Mg2+ containing C3bBb complexes, only one species was detected during dissociation and a single exponential decay (A*exp(((−1)*B)*x)) was used for analysis.
Binder,OD (370 nm) [1],OD (370 nm) [2],OD (370 nm) [3],OD (370 nm) [4],fold increase in C3bBb half-life [5],prevalence of main species [6],t ½ [6],prevalence of main species [7],t ½ [7]
B1,-0.005 OD,-0.01 OD,2.9 OD,0.023 OD,–,–,–,–,–
B2,0.001 OD,0.006 OD,1.9 OD,0.004 OD,–,–,–,–,–
B3,-0.006 OD,0.002 OD,0.187 OD,2.42 OD,–,–,–,–,–
B4,0.17 OD,0.037 OD,2.38 OD,2.57 OD,–,–,–,–,–
B5,-0.014 OD,0.004 OD,-0.01 OD,0.86 OD,–,–,–,–,–
B6,–,–,–,–,135 fold,93%,1.98 h,100%,11.3 h
